According to US20220213461A1:
Blank lines part the entries; values can stand above or below the molecule they belong to.

What was measured:
[1] = target: biotinylated VyPAL2 (Viola yedoensis); assay: affinity binding of biotinylated enzyme to NeutrAvidin agarose beads, pH 6.5, 4 C 3 h; unbound protein measured by A280
[2] = target: biotinylated butelase-1 (Clitoria ternatea); assay: as above
[3] = target: butelase-1 (active form extracted from Clitoria ternatea plant material) (Clitoria ternatea); assay: affinity binding of glycosylated enzyme to ConA agarose beads, 4 C 3 h; unbound protein in flow-through measured by A280
[4] = target: butelase-1 (active form extracted from Clitoria ternatea plant material) (Clitoria ternatea); assay: affinity binding of glycosylated enzyme to ConA agarose beads; unbound protein measured by A280
[5] = target: T1, GN14-SLAN (GISTKSIPPISYRNSLAN)
T1 chain: GISTKSIPPISYRNSLAN

B1: VyPAL2 (recombinant, insect-cell expressed, acid-activated active form) (protein)
chain: STNDDDSIGTRWAVLIAGSKGYHNYRHQADVCHMYQILRKGGVKDENIIVFMYDDIAYNESNPFPGIIINKPGGENVYKGVPKDYTGEDINNVNFLAAILGNKSAIIGGSGKVLDTSPNDHIFIYYADHGAPGKIGMPSKPYLYADDLVDTLKQKAATGTYKSMVFYVEACNAGSMFEGLLPEGTNIYAMAASNSTEGSWITYCPGTPDFPPEFDVCLGDLWSITFLEDCDAHNLRTETVHQQFELVKKKIAYASTVSQYGDIPISKDSLSVYMGTDPANDNRTFVDEN
catalytic efficiency (kcat/KM) of cyclization, HPLC-based kinetics, pH 6.5, 37 C [5]: 274,325 M^-1s^-1

B2: butelase-1 (active form extracted from Clitoria ternatea plant material) (protein)
chain: VEGTRWAVLVAGSKGYVNYRHQADVCHAYQILKKGGLKDENIIVFMYDDIAYNESNPHPGVIINHPYGSDVYKGVPKDYVGEDINPPNFYAVLLANKSALTGTGSGKVLDSGPNDHVFIYYTDHGGAGVLGMPSKPYIAASDLNDVLKKKHASGTYKSIVFYVESCESGSMFDGLLPEDHNIYVMGASDTGESSWVTYCPLQHPSPPPEYDVCVGDLFSVAWLEDCDVHNLQTETFQQQYEVVKNKTIVALIEDGTHVVQYGDVGLSKQTLFVYMGTDPAN
catalytic efficiency (kcat/KM) of cyclization, HPLC-based kinetics, pH 6.5, 37 C [5]: 971,936 M^-1s^-1

Second part, the molecule after the results:

Yield (%) (observed / expected maximal concentration on beads) [1]: 45%
Yield (%) (observed / expected maximal concentration on beads) [2]: 49%
Molecule: NeutrAvidin (deglycosylated avidin) on agarose beads (from UniProt P02701 25-152)

Yield (%) (observed / expected maximal concentration on beads) [3]: 39%
percent of enzyme remaining in the solution (unbound) [4]: 61%
Molecule: Concanavalin A (ConA) on agarose beads (from UniProt P02866 30-281)
